Assay: Bioconversion of eugenol to vanillin: one-pot concurrent cascade EUGO + alkene cleavage oxygenase (5 mM scale)
Format: biochemical
Settings: Table 8b, EUGO FD-CFE 1 mg/mL, CO-0X FD-CFE 1 mg/mL, catalase 10 mg/mL, eugenol 5 mM
Experimental: Stock solutions of eugenol (100 mM) were prepared in ethanol or DMSO and stored at −20° C. Unless otherwise stated, the reaction mixtures (0.5 mL) were set up in 1.5 mL glass vials as follows: freeze-dried cell free extract of IECO/CO-XX (3 mg) and EUGO (0.5 mg) were dissolved in the reaction buffer (50 mM glycine-NaOH pH 9.0) containing sodium ascorbate (1 mM), FeSO4 (1 mM) and bovine liver catalase (5 mg, Sigma Aldrich C40). The reaction was initiated by the addition of 0.025 mL eugenol stock (final concentration 5 mM), then incubated at 30° C. and 120 rpm overnight (rotary shaker). The final content of cosolvent was 5% v/v. To improve oxygenation, the vials were placed horizontally. At certain time points, samples (0.2 mL) were quenched with methanol (0.4 mL) and the mixture was centrifuged at 20238 g for 5-10 mins. Finally, the supernatant was analysed by HPLC.
EUGO (0.5 mg CFE), CO-25 (3 mg CFE) and catalase (5 mg, Sigma product #C40) were dissolved in 50 mM Glycine-NaOH pH 9.0 or Tris-HCl pH 8.0 together with FeSO4 (1 mM) and sodium ascorbate (1 mM). Note that the buffer content of the freeze-dried biocatalyst prep was not considered for the assembling of the reaction. The reaction was started by the addition of 5 mM eugenol from a 20× stock in ethanol. The reactions—performed in glass vials—were then incubated at 30° C. and 120 rpm (25 mm shaker). Finally, samples of the reaction mixture were diluted with MeOH and analyzed by HPLC at 280 and 340 nm.

Row | Product distribution after 24 hours 2a (%) (pH 8.0) | Product distribution after 24 hours 3a (%) (pH 8.0) | Product distribution after 24 hours 5a (%) (pH 8.0) | Product distribution after 24 hours 2a (%) (pH 9.0) | Product distribution after 24 hours 3a (%) (pH 9.0) | Product distribution after 24 hours 5a (%) (pH 9.0) | Molecule
1 | 68.3% | 13.5% | 18.2% | 61.2% | 16.5% | 22.2% | CO-15: alkene cleavage oxygenase, Herbaspirillum sp., SEQ ID NO: 74 (protein, listed as Herbaspirillum sp.) MNIRFSNNDFKSFEAPMRAEIELTGLEVVQGKVPKNLEGGFFRLIGDRKWPAFVDNDVFMLNEDGMASCFYFKDGKVDFRMRYVRTPRFVAEEKAGRALFGHYRNPFSDDPSVAGLSRGTANVTMLMHGGKLLALKEDSPAIELNPFTLETIGEYDWNGKVTAKAITAHPKIDAKTGELVFFGYCAAGPATRDIAYYEADSEGNVTHETWFHAPYTCMVHDIMVTQNYVVFPITPLRHELEWIKRSEPAFKWDPHESVYLGVLPRKGRGDQIRWFKGPNQCHGHTVGAYDDGRYIYADNTFSKRSFFHFFPNVDGSQFKPTDAMPYMKRVVIDMERSDNSFVEQPLFEYPCELPRIDTRFETLPYSFATMNLLDVPGQERVGRGFQWIATMDVNGAKPSKILYAGDNCSIGEPQFVPAHDNAAEGDGYIMTVVGRHEQMRSELLILDASDINAPPVATVALPFRLRSTGHGYWYGGRQLRGETNFPGAW
2 | 76.0% | 4.3% | 19.7% | 71.0% | 5.5% | 23.5% | CO-16: alkene cleavage oxygenase, Valsa mali, SEQ ID NO: 76 (protein, listed as Valsa mali) MAHIFDIAPAVKGYASGRLAKPGDATTFPDTDVFRGINKPSRFEGDIFDLEVTGTIPKDIDGTFYRVQPDHRFPPLFEDDIHFNGDGSVTAIRISNGHADFKQRYVQTDRYKAETAARRSLFGRYRNPWTDNESVKGVIRTASNTNVTFWRGILLASKEDGPPFAMDPVTLETLGRYDFEGQIKAPTFTAHPKFDPDTGEMLCFAYEAGGDGNDGSCDVVVWTVDADGKKTEECWYKAPFAGMIHDMAVSKNFVVLPLTPLKVNMDRMKKGGEKFAWDPKEDQYYGLVPRRNAKPEDIRWFRADNGMAPFLKTLSTHCADTPASSAFQGHIAGCYENEEGHVVVDLTVADGNVFFWWPPDDGTAIPPGKKPNQLSSTTTRWILDPKAETNTRITPAYVWPTNGEFSRIDDRFVTKKYKHFWQAKVDPTRPYDFAKCGPPAGGLFNCLGHYTWSPDNPLAKGEEDVFFFGPTATVQEPSFIPKDEGGEGDGYLIALVNHLDVLRNDIAVFDAQHLAGGPLAVLHLPLKLKLGLHGNFVDHRDIEAWQRRRDAKGDVGPVKVATEPLPWQKSFWDRRQDGQNGGLNGTH
3 | 56.4% | 26.4% | 17.2% | 45.3% | 32.4% | 22.3% | CO-13: alkene cleavage oxygenase, Actinobacteria bacterium, SEQ ID NO: 64 (protein, listed as Actinobacteria bacterium) MVRFPPPKDPFDAPMRVEADIRGVQVTQGEVPEHLDGIYYRCVSDRQWPSYVENDLELFNSDGMIISFRFHKGRVDFKSRYVRTPRFVAEEKAGRALFGAYRNPFDDDPSVAGISRGLANTNVFYHGGKLYASKEDSPPILLDPITLETIGEYDFEGALTSRTSTAHPKFDPITGEMVFFGYEAKGPGTPDIAYYEADASGRIIHEAWLEAPYTSMVHDWAVTQNFVVFPIIPLRSDIEWIKQGRSYFQWDPYEDVYLGVMPRKGTAKDLRWYRGSNRFASHIMGAYDDGRYIYIDTPVGQTNYFPWFPDITGAPYDPERSKGYLSRWTIDTQGESDGFTETRLCDLPGEFPRMDDRQETLPYHWGIMLLTDGPGRVAPGGGFRWLMGIDLKTGRKQIYYPGDNCTLGEAIFVPAAPDAPPGVGYVFTVVARRAEMRSDLVILDAQHIDGEPVCTLSLPMRIRMGVHGNWVSAEELARRTA

— patent US20260176659A1, “IMPROVED METHOD FOR THE PRODUCTION OF NATURAL VANILLIN” (BASE SE, priority 2022, published 2026)
